Reference: patent publication US20180155451A1 (published 2018)
Positions count from the first letter of the chain named. In names and notes the source's numbering stands.

T1: FcgRIIa H (human, UniProt P12318 34-217)
T1 construct: extracellular domain; also called FcγRIIa H; FcγRIIa type H; not shown: His tag attached to the C terminus
T1 sequence (looked up): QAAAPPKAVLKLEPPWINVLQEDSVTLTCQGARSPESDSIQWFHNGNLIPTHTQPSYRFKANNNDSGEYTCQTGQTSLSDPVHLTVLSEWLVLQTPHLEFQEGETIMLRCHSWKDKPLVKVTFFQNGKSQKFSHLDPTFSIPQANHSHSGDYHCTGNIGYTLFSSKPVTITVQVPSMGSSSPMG

T2: FcgRIIb (human, UniProt P31994 43-217)
T2 construct: extracellular domain; Expressed in FreeStyle293 cells and purified; used as analyte in Biacore; also called FcγRIIb; CD32B; not shown: His tag attached to the C terminus
T2 sequence (looked up): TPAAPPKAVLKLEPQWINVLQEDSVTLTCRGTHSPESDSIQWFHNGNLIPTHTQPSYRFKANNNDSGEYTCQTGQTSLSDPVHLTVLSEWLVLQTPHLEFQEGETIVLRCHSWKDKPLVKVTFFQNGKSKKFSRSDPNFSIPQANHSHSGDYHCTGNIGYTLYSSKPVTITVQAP

T3: FcgRIIa R (human, UniProt P12318 34-217)
T3 construct: extracellular domain; also called FcγRIIa R; FcγRIIa type R; not shown: His tag attached to the C terminus
T3 sequence (looked up): T1 sequence (looked up) with H134R

B1: H240-Kn032/H240-Hl032/L73-k0 (antibody, human IgG1, kappa)
heavy 1: QDQLVQSGAEVKKPGASVKVSCKASGFNIKDTYIQWVRQAPGQGLEWMGRIDPLRKQTKYREKFEGRVTITADTSTNTAYMELSSLRSEDTAVYYCVRSGREFDYWGQGTLVTVSSASTKGPSVFPLAPSSKSTSGGTAALGCLVKDYFPEPVTVSWNSGALTSGVHTFPAVLQSSGLYSLSSVVTVPSSSLGTQTYICNVNHKPSNTKVDKKVEPKSCDKTHTCPPCPAPELLGGPDVFLFPPKPKDTLMISRTPEVTCVVVDVSHEDPEVKFNWYVDGVEVHNAKTKPREEQYNSTYRVVSVLTVLHQDWLNGKEYKCKVSNKALPLPEEKTISKAKGQPREPQVCTLPPSRDELTKNQVSLWCLVKGFYPSDIAVEWESNGQPENNYKTTPPVLDSDGSFFLYSKLTVDKSRWQQGNVFSCSVMHEALHNHYTQKSLSLSP
heavy 2: B1 heavy 1 with C348Y, D355C, W365S, L367A, Y406V
light: DIQMTQSPSSLSASVGDRVTITCRASQDIHKYIAWYQQKPGQAPRLLIQYTSTLQPGVPSRFSGSGSGTDYTFTISSLQPEDIATYYCLQYEQLRTFGGGTKVEIKRTVAAPSVFIFPPSDEQLKSGTASVVCLLNNFYPREAKVQWKVDNALQSGNSQESVTEQDSKDSTYSLSSTLTLSKADYEKHKVYACEVTHQGLSSPVTKSFNRGEC
notes: Anti-EREG IgG1 called homodimerized: S239D/A330L/I332E in both H chains, on the knobs-into-holes pair Kn033/Hl033
B2: H240-Kn033/H240-Hl033/L73-k0 (antibody, human IgG1, kappa)
heavy 1: not shown
heavy 2: not shown
light: B1 light
notes: Anti-epiregulin (EREG) IgG1 control with knobs-into-holes alterations only (Y349C/T366W in the knob chain; D356C/T366S/L368A/Y407V in the hole chain); also called H240-Kn033/H240-HI033/L73-k0
B3: H240-Kn072/H240-Hl076/L73-k0 (antibody, human IgG1, kappa)
heavy 1: B1 heavy 1 with L233Y, L234Y, G235W, D238S, H267D, D269E, S297A, L329A, E331I
heavy 2: QDQLVQSGAEVKKPGASVKVSCKASGFNIKDTYIQWVRQAPGQGLEWMGRIDPLRKQTKYREKFEGRVTITADTSTNTAYMELSSLRSEDTAVYYCVRSGREFDYWGQGTLVTVSSASTKGPSVFPLAPSSKSTSGGTAALGCLVKDYFPEPVTVSWNSGALTSGVHTFPAVLQSSGLYSLSSVVTVPSSSLGTQTYICNVNHKPSNTKVDKKVEPKSCDKTHTCPPCPAPELLGGPSVFLFPPKPKDTLMISRTPEVTCVVVDVSHEEPEVKFNWYVDGVEVHNAKTKPREEQYNSTYRVVSVLTVLHQDWLNGKEYKCKVSNDALPMPIEETISKAKGQPREPQVYTLPPSRCELTKNQVSLSCAVKGFYPSDIAVEWESNGQPENNYKTTPPVLDSDGSFFLVSKLTVDKSRWQQGNVFSCSVMHEALHNHYTQKSLSLSP
light: B1 light
notes: Heterodimerized anti-EREG IgG1: D270E introduced into both H chains of H240-Kn061/H240-Hl071/L73-k0
B4: H240-Kn061/H240-Hl071/L73-k0 (antibody, human IgG1, kappa)
heavy 1: B1 heavy 1 with L233Y, L234Y, G235W, D238S, H267D, S297A, L329A, E331I
heavy 2: B3 heavy 2 with E269D
light: B1 light
notes: Heterodimerized anti-EREG IgG1: L234Y/L235Y/G236W/H268D/S298A in Kn061, K326D/A330M/K334E in Hl071

Target: T4, FcgRIa (human, UniProt P12314 16-292)
T4 construct: extracellular domain; Expressed in FreeStyle293 cells and purified; used as analyte in Biacore; also called FcγRIa; FcγRI; not shown: His tag attached to the C terminus
T4 sequence (P12314 16-292): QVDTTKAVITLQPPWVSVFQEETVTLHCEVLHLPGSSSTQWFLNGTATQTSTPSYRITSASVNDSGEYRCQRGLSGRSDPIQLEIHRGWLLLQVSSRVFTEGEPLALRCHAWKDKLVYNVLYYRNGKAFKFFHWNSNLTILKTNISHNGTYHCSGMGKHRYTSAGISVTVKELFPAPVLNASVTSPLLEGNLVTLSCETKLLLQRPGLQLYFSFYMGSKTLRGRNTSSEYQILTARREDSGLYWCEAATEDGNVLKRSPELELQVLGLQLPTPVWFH
Assay: SPR (Biacore), antibody captured on chip, FcgR extracellular domain as analyte
Procedure: (§1) H240-Kn113 (SEQ ID NO: 92) resulting from introduction of Y234E and Y235N into H240-Kn072, H240-Kn115 (SEQ ID NO: 93) resulting from introduction of S239M into H240-Kn072, and H240-Kn125 (SEQ ID NO: 94) resulting from introduction of Y235Q and S239M into H240-Kn072 were prepared according to the method described in Reference Example 1.
(§2) Analysis of interaction between obj ective antibody and the FcγR was carried out using Biacore T100 (GE Healthcare), Biacore T200, Biacore A100, and Biacore 4000. HBS-EP+ (GE Healthcare) was used as the running buffer, and the measurement temperature was set to 25° C. Chips produced by immobilizing the antigen peptide by the amine coupling method to a Series S sensor Chip CM5 (GE Healthcare), chips produced by allowing preliminarily biotinylated antigen peptides to interact with and immobilize onto a Series S Sensor Chip SA (certified) (GE Healthcare), chips produced by immobilizing Protein L (ACTIGEN, BioVision) to Series S Sencor Chip CM5 (GE Healthcare), or chips produced by immobilizing Protein A/G (Thermo Scientific) to Series S Sencor Chip CM5 (GE Healthcare) were used. Antibodies of interest were captured onto these chips, and allowed to interact to each FcγR diluted with running buffer. To regenerate and repeatedly use the chip, the antibodies captured onto the chip were washed off by reacting 10 mM glycine-HCl, pH 1.5.

Kd	Binder
0.073 nM	B1
0.25 nM	B2
0.1 nM	B3

Target: T1, FcgRIIa H
Assay: as above
Procedure: as §1, §2

Kd	Binder
690 nM	B1
930 nM	B2
130 nM	B3

Target: T2, FcgRIIb
Assay: as above
Procedure: as §1, §2

Kd	Binder
630 nM	B1
4200 nM	B2
5700 nM	B3

Target: T5, FcgRIIIa F (human, UniProt P08637 17-208)
T5 construct: extracellular domain; also called FcγRIIIa F; not shown: His tag attached to the C terminus
T5 sequence (P08637 17-208): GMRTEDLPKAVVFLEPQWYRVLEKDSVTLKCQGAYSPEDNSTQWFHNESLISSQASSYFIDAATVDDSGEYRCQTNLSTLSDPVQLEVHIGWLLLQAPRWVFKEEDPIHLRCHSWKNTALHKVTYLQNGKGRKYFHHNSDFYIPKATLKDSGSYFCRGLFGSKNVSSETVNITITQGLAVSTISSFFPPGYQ
Assay: as above
Procedure: as §1, §2

Kd	Binder
9.1 nM	B1
2600 nM	B2
2.6 nM	B3

Target: T6, FcgRIIIa V (human, UniProt P08637 17-208)
T6 construct: extracellular domain; also called FcγRIIIa V; not shown: His tag attached to the C terminus
T6 sequence (P08637 17-208 F176V limits assumed): as the sequence (P08637 17-208) above, with F160V counted along it
Assay: as above
Procedure: as §1, §2

Kd	Binder
3.1 nM	B1
390 nM	B2
1 nM	B3

Target: T3, FcgRIIa R
Assay: as above
Procedure: as §1, §2

Kd	Binder
340 nM	B1
1000 nM	B2
710 nM	B3

Target: T4, FcgRIa
Assay: as above
Remark: another data set of the same source
Procedure: (§3) Specifically, H240-Kn120 (SEQ ID NO: 99) resulting from introduction of S239M into H240-Kn067 and H240-Kn126 (SEQ ID NO: 100) resulting from introduction of Y235Q into H240-Kn120 were prepared according to the method described in Reference Example 1. […] Those described above were assayed for the binding to each FcgR according to the method described in Reference Example 8.
as §2

Kd	Binder
0.073 nM	B1
0.25 nM	B2

Target: T1, FcgRIIa H
Assay: as above
Remark: another data set of the same source
Procedure: as §3, §2

Kd	Binder
690 nM	B1
930 nM	B2

Target: T2, FcgRIIb
Assay: as above
Remark: another data set of the same source
Procedure: as §3, §2

Kd	Binder
630 nM	B1
4200 nM	B2

Target: T5, FcgRIIIa F
Assay: as above
Remark: another data set of the same source
Procedure: as §3, §2

Kd	Binder
9.1 nM	B1
2600 nM	B2

Target: T6, FcgRIIIa V
Assay: as above
Remark: another data set of the same source
Procedure: as §3, §2

Kd	Binder
3.1 nM	B1
390 nM	B2

Target: T3, FcgRIIa R
Assay: as above
Remark: another data set of the same source
Procedure: as §3, §2

Kd	Binder
340 nM	B1
1000 nM	B2

Target: T4, FcgRIa
Assay: as above
Remark: another data set of the same source
Procedure: as §2

Kd	Binder
0.14 nM	B4
0.073 nM	B1
0.25 nM	B2
0.1 nM	B3

Target: T1, FcgRIIa H
Assay: as above
Remark: another data set of the same source
Procedure: as §2

Kd	Binder
280 nM	B4
690 nM	B1
930 nM	B2
130 nM	B3

Target: T2, FcgRIIb
Assay: as above
Remark: another data set of the same source
Procedure: as §2

Kd	Binder
1200 nM	B4
630 nM	B1
4200 nM	B2
5700 nM	B3

Target: T5, FcgRIIIa F
Assay: as above
Remark: another data set of the same source
Procedure: as §2

Kd	Binder
5.1 nM	B4
9.1 nM	B1
2600 nM	B2
2.6 nM	B3

Target: T6, FcgRIIIa V
Assay: as above
Remark: another data set of the same source
Procedure: as §2

Kd	Binder
1.8 nM	B4
3.1 nM	B1
390 nM	B2
1 nM	B3

Target: T3, FcgRIIa R
Assay: as above
Remark: another data set of the same source
Procedure: as §2

Kd	Binder
350 nM	B4
340 nM	B1
1000 nM	B2
710 nM	B3
